{"source": "the nanobody polyreactivity screen of Harvey et al. (2022)"}
{"assay": "yeast display, Sf9 membrane polyspecificity reagent, FACS + sequencing; frameworks hold sequencing errors", "outline": "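Nanobodies came from a synthetic yeast display library in Saccharomyces cerevisiae BJ5465, induced with galactose for 36–48 hours and stained for 1 hour at 4 °C with 10% biotinylated, detergent-solubilized Sf9 membrane reagent. Cells were enriched on streptavidin microbeads and then FACS-sorted, with low and high (top ~1%) gates set on anti-HA fluorescence for expression and streptavidin fluorescence for reagent binding. Each polyreactivity label reflects the gate a clone came from. Genes were amplified by colony PCR, sequenced by MiSeq 2 × 250 and filtered by CDR length.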"}
{"sequence": "QVQHVESGGGLVQAGGSLRLSCAASGFIFTSYAMGWYRQAPGKERELVAVISASDGSTYYADSVKGRFTISRDNAKNTVYLQMNILKPEDTAVYYCNATEYLGGGGIVHVEFGYWGQGTQVTVSS", "polyreactivity (PSR sort gate)": "low polyreactivity"}
{"sequence": "QVQHVESGGGLVQAGGSLRLSCAASGFTFGVNAMGWYRQAPGKERELVAVITSGGNTYYADSVKGRYTISRDNAKNTVYLQMNSLKPEDTAVYYCAADLSYTSYATRYQGDYWGQGTQVTVSS", "polyreactivity (PSR sort gate)": "low polyreactivity"}
{"sequence": "QVQHVESGGGLVQAGGSLRLSCAASGFTIYYYAMGWYRQAPGKERELVAAISTRDGNTYYADSVKGRFTMSRDNAKNTVYLQMNSLKPEDTAVDYCAADYFRYYPYDYWGQGTQVTVSS", "polyreactivity (PSR sort gate)": "low polyreactivity"}
{"sequence": "QVQHVESGGGLVQAGGSLRLSCAASGGIFPTYVMGWYRQAPGKERELVAAIDRNGTSTTYADSVMGRFTISRDNAKNTVYLQMNSLKPEDTAVYYCAAGYNDQTTAYDYWGQGTQVTVSS", "polyreactivity (PSR sort gate)": "low polyreactivity"}
{"sequence": "QVQHVESGGGLVQAGGSLRLSCAASGIIFLRYGMGWYREAPGKERELVPAISSGGSTNYADSVKGRFTISRDNAKNTVYLQLNSLKPEDTAVYYCAALYGRGRPQDSTFLFDYWGPGTQVTVSS", "polyreactivity (PSR sort gate)": "low polyreactivity"}
{"sequence": "QVQHVESGGGLVQAGGSLRLSCAASGIILRSNAMGWYRQAPGKERELVAAINYSGGRTYYADSVKGRFTISRDTAKNTVYLQMNSLKPEDTAVYYCAAGGYPYGLSRVKLYYWGQGTQVTVSS", "polyreactivity (PSR sort gate)": "high polyreactivity"}
{"sequence": "QVQHVESGGGLVQAGGSLRLSCAASGITFGRNTKGWYRQAPGKERELVAAIDSGGNTYADSVKGRFTISRDNAKNTVYLQMNSLKPEDTAVYYCAVDGGEFSSYGYWGQGTQVTVSS", "polyreactivity (PSR sort gate)": "low polyreactivity"}
{"sequence": "QVQHVESGGGLVQAGGSLRLSCAASGITFVDNAMGWYRQAPGKEREWVAVISSSGGSTYYADSVKGRFTISRDNAKNSVYLQMNSLKPEDTAVYYCAARNRFYRRPYDYWGQGTQVTVSS", "polyreactivity (PSR sort gate)": "high polyreactivity"}
{"sequence": "QVQHVESGGGLVQAGGSLRLSCAASGLIYAYYAMGWYRHAPGKERELVAAISRSGVSTYYADSVKGRFTISRDNAKNTVYLQMNSVKPEDTAVYYCAARWRSGFTSGDYWGQGTQVTVSS", "polyreactivity (PSR sort gate)": "low polyreactivity"}
{"sequence": "QVQHVESGGGLVQAGGSLRLSCAASGLTFPYYVMGWYRQAPGKERELVAAIDDGGGSTYYADSVKGRFTISRDNAKNTVYLQMNSLKPVDTAVYYCAAQVDYLAHYGYWGQGTQVTVSS", "polyreactivity (PSR sort gate)": "low polyreactivity"}
{"sequence": "QVQHVESGGGLVQAGGSLRLSCAASGLTFSSYAMGWYRQAPGKERELVAAISLSGGRTYYADSVKGRFTISRDNAKNTVYLQMNSLKPEDTAVYYCAADPYANWCPYPAWYYGAYNYWGQGTQVTVSS", "polyreactivity (PSR sort gate)": "high polyreactivity"}
{"sequence": "QVQHVESGGGLVQAGGSLRLSCAASGLTLYGYTMGWYRQAPGKERELVPTITTGGDSTYYADSVKGRFTISRDNAKNTVYLQMTSLKPEDTAVYYCSAFSYGWDYSYDYWGQGTQVTVSS", "polyreactivity (PSR sort gate)": "low polyreactivity"}
{"sequence": "QVQHVESGGGLVQAGGSLRLSCAASGRIFAFYAMGWYRQAPGKEREFVAAITWSGTNTYYADSVKGRFTISRDNAKNTVYLQMNSLKPEDTAVYYCNARQYYKYGYWGQGTQVTVSS", "polyreactivity (PSR sort gate)": "high polyreactivity"}
{"sequence": "QVQHVESGGGLVQAGGSLRLSCAASGRIFAVNTMGWYRPAPVKERELVAAITSTGRTYYADSVKGRFTISRDNAKNTVYLQMNSLKPEDSAVYYCAADFRYPYAHLPYGYWGQGTQVTVSS", "polyreactivity (PSR sort gate)": "high polyreactivity"}
{"sequence": "QVQHVESGGGLVQAGGSLRLSCAASGRIFEIYAMGWYRPAPGKERYLVAAISWRGVSTYYADSVKGRFTISRDYAKNTVYLQMNSLKPEDTAVFYCNNDVDYFWYVEYDYWGQGTQVTVSS", "polyreactivity (PSR sort gate)": "low polyreactivity"}
{"sequence": "QVQHVESGGGLVQAGGSLRLSCAASGRIFGWYAMGWYRQAPGKERELVAVISWRGRTYYADSVKGRFTISRDNAKNTVYLQMNSLKPEDTAVYYCNARSRSAYDYWGQGTQVTVSS", "polyreactivity (PSR sort gate)": "high polyreactivity"}
{"sequence": "QVQHVESGGGLVQAGGSLRLSCAASGRIFHYYAMGWYRQAPGKERELVAAINKSGGRTYYADSVKGRFTISRDNAKNTVYLQMNSLKPEDTAVYYCNKRSVPGTYYPTPVRYKYDYWGQGTQVTVSS", "polyreactivity (PSR sort gate)": "high polyreactivity"}
{"sequence": "QVQHVESGGGLVQAGGSLRLSCAASGRIFKYNAMGWYRPAPGKERELVAAISYSGGSTYYADSVKGRFTISRDNAKNTVYLQMNSVKPEDTEVYYCAKATTTREPKYGYWGQGTQVTVSS", "polyreactivity (PSR sort gate)": "high polyreactivity"}
{"sequence": "QVQHVESGGGLVQAGGSLRLSCAASGRIFLHNAMGWYRQAPGKERELVAAITGGGSTYYADSVKGRFTISRDNAKNTVYLQMNSLKPEDTAVYYCATLGSLRYYWPGYDYWGQGTQVTVSS", "polyreactivity (PSR sort gate)": "low polyreactivity"}
{"sequence": "QVQHVESGGGLVQAGGSLRLSCAASGRIFSINVMGWYRHAPGKERELVAAISKLGGSTYYADSVKGRFTISRDNAKNTVYLQMNSLKPEDTAVYYCAARRHYTYGNGPSRGGQMDYWGQGTQVTVSS", "polyreactivity (PSR sort gate)": "high polyreactivity"}
{"sequence": "QVQHVESGGGLVQAGGSLRLSCAASGRIFVPYAKGWYRQPPGKERELVADISLRGGTTYYADSVKGRFTISRDNAKNTVYLQMNSLKPEDTAVYYCAARGYVSVWRPYHWFVAGDYWGQGTQVTVSS", "polyreactivity (PSR sort gate)": "high polyreactivity"}
{"sequence": "QVQHVESGGGLVQAGGSLRLSCAASGRIFWGYEMGWYRQAAGKEREFVAALSSGGGRTYYADSVKGRFTISRDNAKNTVYLQMNSLKPDDSGVYYSNAELNWYYYIHLDYWGQGTQVTVSW", "polyreactivity (PSR sort gate)": "low polyreactivity"}
{"sequence": "QVQHVESGGGLVQAGGSLRLSCAASGRIFYCYAMGWYRQAPGKERELVAAISWSGGSTYYADSVKGRFTISRDNAKNTVYLQMNSLKPEDTAVYYCARRYRGGYKYDYWGQGTQVTVSS", "polyreactivity (PSR sort gate)": "high polyreactivity"}
{"sequence": "QVQHVESGGGLVQAGGSLRLSCAASGRIINTYAMGWYRPAPGKERELVAAISWSGGSTYYADSVKGRFTISRDNAKNTVDLQMNSLKPEDTAVYYCNAAYYGYENLSKRGYWGQGTQVTVSS", "polyreactivity (PSR sort gate)": "high polyreactivity"}
{"sequence": "QVQHVESGGGLVQAGGSLRLSCAASGRIIWQNAMGWDRQAPGKERELVAAISSRGGTTYYADSVKGRFTISRDNAKNTVYLQINSLKPEDTAVYYCAKEVWRHYLNLYDYWGQGTQVTVSS", "polyreactivity (PSR sort gate)": "low polyreactivity"}
{"sequence": "QVQHVESGGGLVQAGGSLRLSCAASGRTFFSYAMGLYRHAPGKERELVAAITYSGGRTYYADSVKGRFTISRDNAKNTVYLQMNSLKPEDTAVYYCAATHYREKIDYWGQGTQVTVSS", "polyreactivity (PSR sort gate)": "low polyreactivity"}
{"sequence": "QVQHVESGGGLVQAGGSLRLSCAASGRTFISNAMGWYRQAPGKERELVATINSGGSTNYADSVKGRFTISRDNAKNTVYLQMNSLKPEDTAVYYCARRVRYKHYDYWGQGTQLTVSS", "polyreactivity (PSR sort gate)": "high polyreactivity"}
{"sequence": "QVQHVESGGGLVQAGGSLRLSCAASGRTFNYYAMGWYRQAPGKERELVAAISSSGGRTYYADSVKGRFTISRDNAKNTVYLQMNSLKPEDTAVYYCAADSFYYRPEYDYWGQGTQVTVSS", "polyreactivity (PSR sort gate)": "low polyreactivity"}
{"sequence": "QVQHVESGGGLVQAGGSLRLSCAASGRTFRGYAMGWYRQAPGKERELVASISASGVRTYYADSVKGRFTISRDNAKNTVYLQMNSLKPEDTAVYYCNARHGGWYSVYYYWGQGTQVTVSS", "polyreactivity (PSR sort gate)": "high polyreactivity"}
{"sequence": "QVQHVESGGGLVQAGGSLRLSCAASGRTFRNYAMGWYRQAPGKERELVAAISSGGSTNYADSVKGRFTISRDNAKNTVYLQMNSLKPEDTAVYYCAARQRAYYGPGFDYWGQGTQVTVSS", "polyreactivity (PSR sort gate)": "low polyreactivity"}
{"sequence": "QVQHVESGGGLVQAGGSLRLSCAASGRTFRWYAMGWYRHAPGKERELVAGISRGGGSTTYADSVKGRFTISRDYAKNTVYLQMNSLKPEDTAVYYCAAYWGRTRYYGYDYYYWGQGTQLTVSS", "polyreactivity (PSR sort gate)": "high polyreactivity"}
{"sequence": "QVQHVESGGGLVQAGGSLRLSCAASGRTFVNNAMGWYRQQPGKERELVAAITGSGGSTYYADSVKGRFTISRDNAKNTVYLLMNSLKPEDTAVYYCAKRLVGSRYLFDYWGQGTQVTVSS", "polyreactivity (PSR sort gate)": "low polyreactivity"}
{"sequence": "QVQHVESGGGLVQAGGSLRLSCAASGRTFVTNAKGWYRQAPGKERELVAAISSSGGSTYYADSVKGRFTISRDNAKNTVYLQMNSLKPEDTAVYYCATDRYVTPRLRFDYWGQGTQVTVSS", "polyreactivity (PSR sort gate)": "low polyreactivity"}
{"sequence": "QVQHVESGGGLVQAGGSLRLSCAASGRTLSFYAMGWYRQAPGKERELVAAINYSGGRTSYADSVKGRFTISRDNAKNTVYLQMNSLKPEDTAVYYCAKGVYPWGVYYWGQGTQVTVSS", "polyreactivity (PSR sort gate)": "low polyreactivity"}
{"sequence": "QVQHVESGGGLVQAGGSLRLSCAASGSIFGVNVMGWYRQAPGKERELVAAISSGGGSTYYAESVKGRFTISRDNAKNTVYLQMNSLKPEDTAVYYCAARGQKYGSTYRMDYWGQGTQVTVSS", "polyreactivity (PSR sort gate)": "low polyreactivity"}
{"sequence": "QVQHVESGGGLVQAGGSLRLSCAASGSIFLLYAMGCYSQAPGKERELVAAISTRDGSTYYADSVKGRFTISRDNAKNTVYLQMNSLKPEDTAVYYCATLYSYNYWGQGTQVTVSS", "polyreactivity (PSR sort gate)": "high polyreactivity"}
{"sequence": "QVQHVESGGGLVQAGGSLRLSCAASGSIFTTYAMGWYRQAPGKERELVAAISSGGGTNYADSVKGRFTISRDNAKHTVYLQMNSLKPEDTAVYYCNKRYYRLQLHNAYGATPRRNYWGQGTQVTVSS", "polyreactivity (PSR sort gate)": "low polyreactivity"}
{"sequence": "QVQHVESGGGLVQAGGSLRLSCAASGSIFYYYAMGWYRQAPGKERELVATISSSSGSTYADSVKGRFTISRDNAKNTVYLQMNSLKPEDTAVYYCAKDYWGQGTKVTVSS", "polyreactivity (PSR sort gate)": "low polyreactivity"}
{"sequence": "QVQHVESGGGLVQAGGSLRLSCAASGSTFAYNDMGRYRQAPGKERELVADIRSGGNTNYADSVKGRFTISRDNAKNTVYLQMNSLKPEDTAVYYCATDGYRIDVYHPDYRYDYWGQGTQVTVSS", "polyreactivity (PSR sort gate)": "low polyreactivity"}
{"sequence": "QVQHVESGGGLVQAGGSLRLSCAASGSTFGLYAMGWYRQAPGKERELVAAISRRGGSTYYADSVKGRLTISRDNAKNTVYLQMNSLRPVETAVYDCAAVTAYRFDTLGMDYWGQGTQVTVSS", "polyreactivity (PSR sort gate)": "high polyreactivity"}
{"sequence": "QVQHVESGGGLVQAGGSLRLSCAASGSTFRYYAMGWYRQAPGKERELVAAITSSGTSTYYADSVKGRFTISRDNAKNTVYLQMNSLKPEDTAVYSCAAPPVYKWVSSRYDYWGQGTQVTVSS", "polyreactivity (PSR sort gate)": "low polyreactivity"}
{"sequence": "QVQHVESGGGLVQAGGSLRLSCAASGSTFTTNAMGWYRQAPGKERELVAAITASGGRTYYADSVKGRFTISRDNAKNTVYLQMNSLKPEDTAVYYCAADSGNEYDYWGQGTQVTVSS", "polyreactivity (PSR sort gate)": "low polyreactivity"}
{"sequence": "QVQHVESGGGLVQAGGSLRLSCAASGSTFWYNAMGWYRQAPGKERELVAAISYSGGRTYYADSVKGRFTISRDNAKNTVYLQMNSLKPEDTAVYYCNADSRYGGDYWGQGTQVTVSS", "polyreactivity (PSR sort gate)": "low polyreactivity"}
